# B1: recombinant M. tuberculosis rGlmU (His-tagged, from pHis-glmU) (enzyme)
# chain: MTFPGDTAVLVLAAGPGTRMRSDTPKVLHTLAGRSMLSHVLHAIAKLAPQRLIVVLGHDHQRIAPLVGELADTLGRTIDVALQDRPLGTGHAVLCGLSALPDDYAGNVVVTSGDTPLLDADTLADLIATHRAVSAAVTVLTTTLDDPFGYGRILRTQDHEVMAIVEQTDATPSQREIREVNAGVYAFDIAALRSALSRLSSNNAQQELYLTDVIAILRSDGQTVHASHVDDSALVAGVNNRVQLAELASELNRRVVAAHQLAGVTVVDPATTWIDVDVTIGRDTVIHPGTQLLGRTQIGGRCVVGPDTTLTDVAVGDGASVVRTHGSSSSIGDGAAVGPFTYLRPGTALGADGKLGAFVEVKNSTIGTGTKVPHLTYVGDADIGEYSNIGASSVFVNYDGTSKRRTTVGSHVRTGSDTMFVAPVTIGDGAYTGAGTVVREDVPPGALAVSAGPQRNIENWVQRKRPGSPAAQASKRASEMACQQPTQPPDADQTP
# B2: recombinant M. tuberculosis rAtsG (His-tagged, from pHis-atsG) (enzyme)
# chain: MTSERATGQRENLLIVHWHDLGRYLGVYHHPDVYSPRLDRLAAEGILFTRAHATAPLCTPSRGSLFTGRYPQSNGLVGLAHHGWEYRTGVQTLPQLLSESGWYSALFGMQHETSYPKRLGFDEFDVSNSYCEYVVAKAQDWLHNRVPALDGQRFLLTAGFFETHRPYPHERYRPADSAAVELPDYLPDTPEVRQDVAEFYGSIATADEAVGRLLDTLADTGLDASTWVVFVTDHGPAFPRAKSTLYDAGTGIALIIRPPTRRAMAPRVYDELFSGVDLVPTLLDLLRLEVPADVEGVSHAPALLAPDTENAAVRDHVYTAKTYHDSFDPIRAIRTKEYSYIENYAPRPLLDLPWDIQESPAGMAVAPLVKAPRPQRELYDLRADPTETNNLLAGDDSTQGVAAIAADLAVRLHDWRQRTADVIPSDFAGSRIAERYTETYLRIHRKTPTGRSAIAADRGIDEHCS
# Target: recombinant human IL-8 (interleukin-8) (human)
# Assay: SPR; Biacore; IL-8 immobilised on a CM5 chip by amine coupling (Fc2), BSA on the reference cell (Fc1); soluble recombinant Mtb proteins as analytes at 2.5, 5, 10 and 20 uM; 22 °C, PBS pH 7.4 with 0.005% P20; flow 5 ul/min; one-to-one model
binder,measurement,value
B1,Kd,5.24 µM
B2,Kd,6.83 µM

# Source: PMC4734655
